The target in assay [1] is T1, PD-1-mFc (human, UniProt Q15116 25-170, limits assumed).
T1 construct: also called human PD-1-mFc
Briefly: ELISA, PD-1-mFc coated; antibody 1 ug/mL diluted 1:27. As to the method: (§1) A microplate was coated with PD-1-mFc at 0.5 μg/mL and incubated at 4° C. overnight. Then the microplate coated with antigens was washed once with PBST, and then blocked with a PBS solution containing 1% BSA as blocking solution at 37° C. for 2 h. After blocking, the microplate was washed 3 times with PBST. The microplate containing the test antibodies was incubated at 37° C. for 30 min, and then washed 3 times with PBST. […] After incubation, the plate was washed 4 times with PBST, TMB (Neogen, 308177) was added in the dark for chromogenesis for 5 min, and then a stop solution was added to terminate chromogenic reaction. The microplate was put into a microplate reader immediately, and the OD value of each well in the microplate was read at 450 nm. The data were analyzed and processed by SoftMax Pro 6.2.1,

In assay [2] the target is T1, PD-1-mFc. The experiment in a line: ELISA, PD-1-mFc coated. As to the method:
as §1
(In general: An ELISA detects its analyte on a solid surface through an enzyme-linked reagent.)

Assay [3] concerns the target T2, PD-1 on 293T-PD1 cell surface (human, UniProt Q15116 25-288).
T2 construct: whole, on cells
The experiment in a line: flow cytometry, 293T-PD1 cells; antibody 11.11 nM. As to the method: (§2) 500 μL of PBSA was added, and the mixture was centrifuged at 5600 rpm for 5 min to remove the supernatant. […] The system was mixed gently and uniformly, and then was incubated on ice for 1 h. Then 500 μL of PBSA was added, and the mixture was centrifuged at 5600 rpm for 5 min to remove the supernatant. […] 500 μL of PBSA was added, and the mixture was centrifuged at 5600 rpm for 5 min to remove the supernatant. At last, 200 μL of PBSA was added to resuspend cell precipitates, and the mixture was transferred to a flow tube for FACSCalibur detection.
(In flow cytometry, cells or beads pass a laser one at a time.)

Assay [4] has as its target T2, PD-1 on 293T-PD1 cell surface. The experiment in a line: flow cytometry, 293T-PD1 cells; antibody 0.14 nM. The procedure: as §2
Another assay deals with human PD-1-mFc-biotin (human, UniProt Q15116 25-170, limits assumed, biotin label, site not stated). The experiment in a line: competitive ELISA, blocking of PD-1-mFc-biotin binding to coated PD-L1-mFc. As to the method:
After incubation, the microplate was blocked with a PBS solution containing 1% BSA at 37° C. for 2 h. After blocking, the plate was washed three times and dried. The antibody was serially diluted to 7 concentrations in a gradient ratio of 1:3 on a dilution plate with 10 μg/mL as the starting concentration, and a blank control was set. […] Then the mixture after reaction was added to the coated microplate, and the microplate was incubated for at 37° C. for 30 min. After incubation, the plate was washed three times with PBST and dried. SA-HRP (KPL, 14-30-00) working solution was added, and the plate was incubated at 37° C. for 30 min. After incubation, the plate was washed four times and patted dry. Then TMB (Neogen, 308177) was added in the dark for chromogenesis for 5 min, and a stop solution was added to terminate chromogenic reaction. Then the microplate was put into a microplate reader immediately, and the OD value of each well in the microplate was read at 450 nm. The data were analyzed and processed by SoftMax Pro 6.2.1.

For assay [5], the target named is T2, PD-1 on 293T-PD1 cell surface. The experiment in a line: flow cytometry, 293T-PD1 cells; antibody 3.70 nM. As to the method:
as §2

For assay [6] the target is unchanged. Briefly: flow cytometry, 293T-PD1 cells; antibody 1.23 nM. As to the method:
as §2

Assay [7] has the same target. The experiment in a line: flow cytometry, 293T-PD1 cells. As to the method:
as §2

Another assay deals with T3, human NT5E-Biotin (human, UniProt P21589 27-552, limits assumed, biotin label, site not stated).
T3 construct: Captured on streptavidin-coated plates; also called human NTSE-Biotin
T3 sequence (looked up): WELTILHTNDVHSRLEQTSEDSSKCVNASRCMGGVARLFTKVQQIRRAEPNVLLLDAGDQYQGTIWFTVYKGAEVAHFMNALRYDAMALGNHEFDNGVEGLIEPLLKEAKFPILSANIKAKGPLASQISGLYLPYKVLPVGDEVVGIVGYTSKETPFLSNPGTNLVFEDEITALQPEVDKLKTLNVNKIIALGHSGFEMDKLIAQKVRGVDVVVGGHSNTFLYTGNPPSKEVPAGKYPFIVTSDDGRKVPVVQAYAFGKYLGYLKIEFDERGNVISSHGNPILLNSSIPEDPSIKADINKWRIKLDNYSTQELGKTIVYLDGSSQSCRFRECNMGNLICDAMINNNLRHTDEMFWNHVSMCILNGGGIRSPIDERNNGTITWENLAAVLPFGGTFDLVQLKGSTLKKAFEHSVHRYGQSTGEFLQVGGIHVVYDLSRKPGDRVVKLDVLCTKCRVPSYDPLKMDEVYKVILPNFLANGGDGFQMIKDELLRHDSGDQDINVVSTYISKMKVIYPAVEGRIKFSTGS
The experiment in a line: ELISA, NT5E-biotin on streptavidin. As to the method:
A microplate was coated with streptavidin at 2 μg/mL and then incubated at 4° C. overnight. After incubation, the microplate coated with streptavidin was washed once with PBST, and blocked with a PBS solution containing 1% BSA as a microplate blocking solution at 37° C. for 2 h. After blocking, the microplate was washed 3 times with PBST. Then, 0.5 μg/mL antigen human NTSE-Biotin was added and incubated at 37° C. for 30 min. Then, the plate was washed 3 times with PBST. The antibodies serially diluted with PBST solution (the dilution gradients for the antibody are shown in Table 3) were added to wells of the microplate. The microplate containing the test antibodies was incubated at 37° C. for 30 min, and then washed 3 times with PBST. […] After incubation, the plate was washed 4 times with PBST, TMB (Neogen, 308177) was added in the dark for chromogenesis for 5 min, and then a stop solution was added to terminate chromogenic reaction. The microplate was put into a microplate reader immediately, and the OD value of each well in the microplate was read at 450 nm. The data were analyzed and processed by SoftMax Pro 6.2.1.

The target of assay [8] is T2, PD-1 on 293T-PD1 cell surface. The experiment in a line: flow cytometry, 293T-PD1 cells; antibody 0.41 nM. The procedure: as §2
Assay [9] has the same target. The experiment in a line: flow cytometry, 293T-PD1 cells; antibody 0.05 nM. The procedure: as §2
Assay [10] has the same target. The experiment in a line: flow cytometry, 293T-PD1 cells; antibody 100.00 nM. The procedure: as §2
The target is the same in assay [11]. Briefly: flow cytometry, 293T-PD1 cells; antibody 33.33 nM. The procedure:
as §2

The target of assay [12] is T4, CD73 on cell membrane surface (MDA-MB-231, U87-MG) (human, UniProt P21589 27-549).
T4 construct: whole, on cells; also called NT5E
T4 sequence (looked up): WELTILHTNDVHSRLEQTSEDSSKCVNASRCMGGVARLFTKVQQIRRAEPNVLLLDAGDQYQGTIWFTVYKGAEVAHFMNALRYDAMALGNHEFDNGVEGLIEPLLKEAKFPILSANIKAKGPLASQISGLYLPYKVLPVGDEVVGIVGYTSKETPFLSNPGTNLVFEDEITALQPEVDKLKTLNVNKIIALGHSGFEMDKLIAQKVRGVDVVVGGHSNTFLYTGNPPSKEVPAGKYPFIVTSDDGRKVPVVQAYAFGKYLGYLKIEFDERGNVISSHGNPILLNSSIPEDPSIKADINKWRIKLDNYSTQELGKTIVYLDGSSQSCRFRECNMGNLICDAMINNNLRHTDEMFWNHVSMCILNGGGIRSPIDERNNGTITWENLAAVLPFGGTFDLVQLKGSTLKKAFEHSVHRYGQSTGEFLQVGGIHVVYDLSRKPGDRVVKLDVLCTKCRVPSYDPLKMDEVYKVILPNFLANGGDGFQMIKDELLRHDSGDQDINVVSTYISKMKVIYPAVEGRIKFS
The experiment in a line: flow cytometry, MDA-MB-231 cells; antibody 33.33 nM. The procedure:
(§3) MDA-MB-231 cells in logarithmic phase were digested with conventional trypsin and transferred to a 1.5 mL centrifuge tube at 3×10⁵ cells/tube. 500 μL of PBSA was added, and the mixture was centrifuged at 5600 rpm for 5 min to remove the supernatant. […] The system was mixed gently and uniformly, and then was incubated on ice for 1 h. Then 500 μL of PBSA was added, and the mixture was centrifuged at 5600 rpm for 5 min to remove the supernatant. […] 500 μL of PBSA was added, and the mixture was centrifuged at 5600 rpm for 5 min to remove the supernatant. At last, 200 μL of PBSA was added to resuspend cell precipitates, and the mixture was transferred to a flow tube for FACSCalibur detection.

In assay [13] the target is T4, CD73 on cell membrane surface …. The experiment in a line: flow cytometry, MDA-MB-231 cells; antibody 100.00 nM. The procedure:
as §3

The target is the same in assay [14]. Briefly: flow cytometry, MDA-MB-231 cells; antibody 1.23 nM. As to the method:
as §3

Assay [15] has the same target. Briefly: flow cytometry, MDA-MB-231 cells; antibody 11.11 nM. The procedure: as §3
Assay [16] has the same target. The experiment in a line: flow cytometry, MDA-MB-231 cells; antibody 0.14 nM. As to the method: as §3
For assay [17] the target is unchanged. The experiment in a line: flow cytometry, MDA-MB-231 cells; antibody 0.05 nM. The procedure: as §3
The target is the same in assay [18]. The experiment in a line: flow cytometry, MDA-MB-231 cells; antibody 3.70 nM. The procedure:
as §3

The target is the same in assay [19]. Briefly: cell-based or functional assay.
Assay [20] has the same target. Briefly: flow cytometry, MDA-MB-231 cells. As to the method: as §3
The target is the same in assay [21]. The experiment in a line: flow cytometry, MDA-MB-231 cells; antibody 0.41 nM. The procedure: as §3

The record followed here is US20230151111A1 (AKESO BIOPHARMA, published 2023).

What is called EC50 is the midpoint of the concentration-response curve. Read a low EC50 as an effect from little substance.

T2 sequence (Q15116 25-288): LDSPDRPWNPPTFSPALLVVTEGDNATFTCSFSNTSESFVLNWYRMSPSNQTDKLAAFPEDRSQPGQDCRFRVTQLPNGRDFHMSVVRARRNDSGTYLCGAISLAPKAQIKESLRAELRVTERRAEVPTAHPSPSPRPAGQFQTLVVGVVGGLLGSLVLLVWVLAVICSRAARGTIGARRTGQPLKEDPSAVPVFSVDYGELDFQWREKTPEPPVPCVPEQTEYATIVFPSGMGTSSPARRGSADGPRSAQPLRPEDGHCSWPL
T1 sequence (Q15116 other isoform, or with tags, fused parts or gaps limits assumed): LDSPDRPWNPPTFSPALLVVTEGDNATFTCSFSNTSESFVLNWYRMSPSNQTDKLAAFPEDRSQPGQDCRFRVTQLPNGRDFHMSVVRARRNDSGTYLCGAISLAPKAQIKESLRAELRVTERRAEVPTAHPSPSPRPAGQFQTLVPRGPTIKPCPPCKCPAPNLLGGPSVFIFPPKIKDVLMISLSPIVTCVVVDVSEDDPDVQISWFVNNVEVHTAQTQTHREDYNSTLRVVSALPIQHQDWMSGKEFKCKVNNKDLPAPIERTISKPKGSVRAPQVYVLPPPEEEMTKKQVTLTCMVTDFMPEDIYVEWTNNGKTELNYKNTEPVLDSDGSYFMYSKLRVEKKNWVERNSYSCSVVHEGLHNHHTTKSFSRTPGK
Chain of human PD-1-mFc-biotin (Q15116 other isoform, or with tags, fused parts or gaps limits assumed): as above

B1: P1D7V04R (bispecific antibody, human IgG1, kappa)
heavy: not shown
light: DIQMTQSPSSMSASVGDRVTFTCRASQDINTYLSWFQQKPGKSPKTLIYRANRLVSGVPSRFSGSGSGQDYTLTISSLQPEDMATYYCLQYDEFPLTFGAGTKLELKRTVAAPSVFIFPPSDEQLKSGTASVVCLLNNFYPREAKVQWKVDNALQSGNSQESVTEQDSKDSTYSLSSTLTLSKADYEKHKVYACEVTHQGLSSPVTKSFNRGEC
notes: Morrison form IgG-scFv
B1 registered an OD450 in the assay with PD-1-mFc [1] of 1.66 OD. In addition, the EC50 with PD-1-mFc [2] was found to be 0.089 nM; with human PD-1-mFc-biotin, 1.34 nM; in [7], 1.57 nM; with human NT5E-Biotin it was 0.439 nM. For the same molecule, the FACS signal was 1280 in assay [3]; 52.4 in assay [4]; 467 in [5]; 289 in assay [6]; 113 in assay [8]; 24.8 in [9]. The FACS signal in assay [10] turned out to be 361; in assay [11] it was 400.

B2: MEDI9447 (antibody, V domains shown)
VH: EVQLLESGGGLVQPGGSLRLSCAASGFTFSSYAYSWVRQAPGKGLEWVSAISGSGGRTYYADSVKGRFTISRDNSKNTLYLQMNSLRAEDTAVYYCARLGYGRVDEWGRGTLVTVSS
VL: QSVLTQPPSASGTPGQRVTISCSGSLSNIGRNPVNWYQQLPGTAPKLLIYLDNLRLSGVPDRFSGSKSGTSASLAISGLQSEDEADYYCATWDDSHPGWTFGGGTKLTVLG
As to B2, the FACS signal stood at 930 in [12]; 878 in assay [13]; 389 in [14]; 829 in assay [15]; 64.4 in [16]; 32.6 in assay [17]. Besides, the FACS signal is 698 in assay [18] and 158 in assay [21]. For the same molecule, the “IC50 (nM), inhibition of enzyme activity of CD73 on U87-MG cell membrane surface” value in [19] worked out at 0.119 nM. This molecule came in with an EC50 in assay [20] of 1.59 nM.
